US20070099268A1, “Chimeric HCN channels” (priority 2005, published 2007)

Key:
[1] = test system: adult ventricular myocytes; assay: Voltage clamp (tail currents) of HCN2 expressed with AdHCN2 in adult ventricular myocytes; assay type: cell-based, rat
Method: Freshly isolated adult ventricular myocytes were prepared using the procedure described by Kuznetsov et al. (1995). This entailed a Langendorff perfusion of collagenase, followed by trimming away of the atria. The remaining tissue was minced and dissociated in additional collagenase solution. The isolated myocytes were suspended in a SFM then plated on 9×22 mm glass coverslips at 0.5-1×10^3 cells/mm^2. Two to three hours later, after the myocytes had adhered to the coverslips, the adenoviral infection procedure was begun (see below).
(§1) For increased expression efficiency, an adenoviral construct for mHCN2 was prepared. Gene delivery and transfer procedures followed previously published methods (Ng et al., 2000; He et al., 1998). A DNA fragment (between EcoRI and XbaI restriction sites) that included mHCN2 DNA downstream of the CMV promoter was obtained from plasmid pTR-mHCN2 (Santoro and Tibbs, 1999) and subcloned into the shuttle vector pDC516 (AdMax™; Microbix Biosystems, Toronto, Canada). The resulting pDC516-mHCN2 shuttle plasmid was co-transfected with a 35.5 kb El-deleted Ad genomic plasmid pBHGΔE1,3FLP (AdMax™) into El-complementing HEK293 cells.
AdHCN2 infection of rat ventricular myocytes was carried out 2-3 h after the isolated cells were plated onto coverslips. The culture medium was removed from the dishes (35-mm) and the inoculum of 0.2-0.3 ml/dish was added containing AdHCN2. The value of m.o.i. (multiplicity of infection—the ratio of viral units to cells) was 15-100. The inoculum was dispersed over the cells every 20 min by gently tilting the dishes so that the cells were evenly exposed to the viral particles. The dishes were kept at 37° C. in a CO2 incubator during the adsorption period of 2 h, then the inoculum was discarded and the dishes were washed and refilled with the appropriate culture medium. The dishes remained in the incubator for 24-48 h before electrophysiological experiments were conducted.
The whole-cell voltage clamp technique was employed to record native If or expressed IHCN2 or IHCN4. Action potentials were recorded in current clamp mode, again using a whole cell patch electrode. Experiments were carried out on cells superfused at 35° C. Extracellular solution contained (mM): NaCl, 140; NaOH, 2.3; MgCl2, 1; KCl, 5.4; CaCl2, 1.0; HEPES, 5; glucose, 10; pH 7.4. To record from myocytes expressing native currents (If), myocytes expressing HCN2 (IHCN2) or HCN4 (IHCN4), [K^+]0 was increased to 10 mM, and MnCl2 (2 mM) and BaCl2 (4 mM) added to the superfusate to eliminate calcium and inward rectifier (IK1) currents. In some experiments CsCl (4 mM) was used extracellularly to identify the pacemaker current as the Cs-sensitive current. […]
The activation relation of the native or expressed current can be determined from the steady-state I-V relation. […]

[2] = test system: neonatal ventricular myocytes; assay: Voltage clamp (tail currents) of HCN2 expressed with AdHCN2 in neonatal ventricular myocytes; assay type: cell-based, rat
Method: as §1, with “cells. […]” for “cells.”
The whole-cell voltage clamp technique was employed to record native If or expressed IHCN2 or IHCN4. Action potentials were recorded in current clamp mode, again using a whole cell patch electrode. […]
The activation relation of the native or expressed current can be determined from the steady-state I-V relation. In this case, the reversal potential (Vf) was separately determined from the fully activated I-V relation (Accili et al., 1991) and used to generate the activation relation (y=I/(gmax*(V−Vf)), where gmax is the maximal conductance). […] Tail currents were measured at a negative voltage (−125 mV) to avoid contamination by transient outward and other currents at less negative voltages. […]

B1: mHCN2: mouse HCN2 hyperpolarization-activated, cyclic nucleotide-gated channel, wild type (GenBank AJ225122) (protein)
chain: MDARGGGGRPGDSPGTTPAPGPPPPPPPPAPPQPQPPPAPPPNPTTPSHPESADEPGPRARLCSRDSACTPGAAKGGANGECGRGEPQCSPEGPARGPKVSFSCRGAASGPSAAEEAGSEEAGPAGEPRGSQASFLQRQFGALLQPGVNKFSLRMFGSQKAVEREQERVKSAGAWIIHPYSDFRFYWDFTMLLFMVGNLIIIPVGITFFKDETTAPWIVFNVVSDTFFLMDLVLNFRTGIVIEDNTEIILDPEKIKKKYLRTWFVVDFVSSIPVDYIFLIVEKGIDSEVYKTARALRIVRFTKILSLLRLLRLSRLIRYIHQWEEIFHMTYDLASAVMRICNLISMMLLLCHWDGCLQFLVPMLQDFPSDCWVSINNMVNHSWSELYSFALFKAMSHMLCIGYGRQAPESMTDIWLTMLSMIVGATCYAMFIGHATALIQSLDSSRRQYQEKYKQVEQYMSFHKLPADFRQKIHDYYEHRYQGKMFDEDSILGELNGPLREEIVNFNCRKLVASMPLFANADPNFVTAMLTKLKFEVFQPGDYIIREGTIGKKMYFIQHGVVSVLTKGNKEMKLSDGSYFGEICLLTRGRRTASVRADTYCRLYSLSVDNFNEVLEEYPMMRRAFETVAIDRLDRIGKKNSILLHKVQHDLSSGVFNNQENAIIQEIVKYDREMVQQAELGQRVGLFPPPPPPQVTSAIATLQQAVAMSFCPQVARPLVGPLALGSPRLVRRAPPGPLPPAASPGPPAASPPAAPSSPRAPRTSPYGVPGSPATRVGPALPARRLSRASRPLSASQPSLPHGVPAPSPAASARPASSSTPRLGPAPTARTAAPSPDRRDSASPGAASGLDPLDSARSRLSSNL
shift of voltage dependence by saturating cAMP, adult ([1]; 10 μM cAMP in the pipette): 14 mV | slope factor (K), adult myocytes ([1]; AdHCN2): 6.5±0.5 mV | negative shift of voltage dependence of activation/deactivation kinetics in the adult ([1]; adult vs neonatal): 21 mV | shift in the activation relation (midpoints), adult vs neonatal myocytes ([1]; negative in the adult): 18 mV | shift of voltage dependence by saturating cAMP, neonate ([2]; 10 μM cAMP in the pipette): 17 mV | slope factor (K), neonatal myocytes ([2]; AdHCN2): 9.8±0.6 mV
